Experiment: label from the status in PepcDB records

Q: Which protein production does the source give for “MTKSHSQDQESTLLRLEHAQAILQRDAALAHIEHMRRSRSWRLTRPLRMLMQLLRHGVINDESEYPTHLPSLVQPLPASIPLEPDIVEDSTSGSAAQHFDLLCFANIDWSARFQRPQQLMTQFAIQGYRVFYIILSPLPAAERPYTAHPVAPGVFEITLRGHARQDYYATCITEGNLRANAEALQALVSDYRIKTAVSVVHLPYWTRLALHLRKAYGWPVQYDCMDEWQDFPNIGQPLLAQEQVLVEQADLVTVTASVLYDKWASTSRRCQLVRNGVDFDFFARCCTPNTLLEELQGPIIGFYGALAEWVDFELVAAIARQRPEWNLVLIGDVFVRDLAGLDRLPNVHLLGRKPYSQMPQYLYHFDVCIIPFRLYNVTHAVDPVKFYEFISAGKPVVAVPLLEMQIYEPYLYFADGPSAFVTQIERALGETDLQRWDQRLALARENDWRQRFEDTRDALVELFPKVSVIIVTYNNVQLTRGCIDSLLRNCAYPNLQLIIVDNASQDSTRNYLRYLARSEPNVSIVLNEQNLGFAAANNQGLRLAQGHYLVLLNNDTVVPKGWLAPLLRHLDDPEVGLVGPTTNAVGNEARVSIDYQDLDDMEDFADRRASQYRGRCFDIPMLAMFCVAMRREVLDQVGWLDEAFGIGMFEDDDYSRRVQAAGLRTVCAEDSYIHHYGQASFKALIASGEYQRLWDKNQAYFESKWGPWQPHRQARRRANADATKMKLTD” here?
A: failed

Q: With “MKTINLSIFGLGNVGLNLLRIIRSFNEENRLGLKFNVVFVADSLHSYYNERIDIGKVISYKEKGSLDSLEYESISASEALARDFDIVVDATPASADGKKELAFYKETFENGKDVVTANKSGLANFWPEIMEYARSNNRRIRYEATVAGGVPLFSFIDYSVLPSRIKKFRGIVSLTINYFIRELANKREFDDVLSEATKLGIVEKNYKDDLTGLDAARKSVILCNHLYGSSYRLSDVFYEGILDQDRSFGKNERLVTETGIVNGKPSAESRIKSLDSNDYLLTLGKGSLGYQLQTDTNGTLNVSDLYDGPYETAGAVMNDLVILSMFTV” as the sequence, how does the protein production read?
A: not failed

Q: With “MKKSLDEHAERFSDHADAYDEDQDSAAYRACVNFVVDHAAPESDDVVLDLGTGTGAIAFALASDAAEIIGRDISDGMLEKAREKADGRGVENVSFGDGRFRAPNVDRPVDIVTSNFAMHHLGDDEKREAIDTIADLGPRRIVLGDVMLFGDDDPDAPFYSPEVDDPATVGVLADAFTDAGYALTAVEMVTEQAGVLVAERVKSDLEHHHHHH” as the sequence, how does the protein production read?
A: not failed

Q: Which protein production does the source give for “MDTVPPRTYNNSNFPEGLPAVSLSDEERARQQRWTPLRVTIWILISAIAGLGWWMLAVRRGETVNGIWFVFAAIGSYFIGYRFYAKYIQDKLVHPDDSRATPAEYDYNGRDFVPTDRRILYGHHFAAIAGAGPLVGPVLSAQMGYLPSTIWIIVGVILAGAVQDYLVLVISMRRGGRSLGQMAREELGRFGGIAALIATLTIMLIIVAILAMVVVNSLAASSWGVWSVGLTIPIALLMGFYLRYLRPGKVFEVSIIGIVLLVLAIASGAWIENTAVASALHLSKPFLAWAIIIYGFIAAVLPVWMLLAPRDYLSTFMKVGVIAMLAISIVIVRPVINVPAMTVYATNGAGPVFSGKLFPFLFVTIACGALSGFHATISSGTTPKLIEKESQARLIGYGGMLMESFVAIMALVAALSVDRGIYFAMNSPAGATGNTVKSAIAYVNSLGLSGVHANANTLTTTAKLVGETSIVSRTGGAPTLAVGLATIMHKIFGGEAMMSFWYHFAIMFEALFILTSVDAGTRVARFMLSDALGNFWPRLKDHSWKVGSWLTTAIMVAGWGSILLMGVTDPLGGINTLFPLFGIANQLLAAVALSICLVIFARAGHTWRLLIIFVPMLFTAIITVYGSWLKIFSPDPKLGYWANHMTYKRAIADGKTSLGQAKNIDEMHTVVGNTAIQGTMSIIFVVCALIVMIVACIRTVQALRGRNIIDTEDPAKPSKIFAPSGLMPTKAERDLQVEWDAFYEEHPELDLESVHKDKEHA” here?
A: failed

Q: With “DGAVQYYDGAVTEITEQKRQEQQLRQSRERWRRLVEKLQDGLHIAVDGDIRYINPAGAEILGADAPDDVIGHSLWDFVALEQAQQEIFEDRLRKIYRERTSTAPQEMEITGLNGERRVIESYTVPIKFDGEQAGQTVFRDITEQKEMEQALREREARLRSITENVS” as the sequence, how does the protein production read?
A: failed

Q: Which protein production does the source give for “MENKKMNLLLFSGDYDKALASLIIANAAREMEIEVTIFCAFWGLLLLRDPEKASQEDKSLYEQAFSSLTPREAEELPLSKMNLGGIGKKMLLEMMKEEKAPKLSDLLSGARKKEVKFYACQLSVEIMGFKKEELFPEVQIMDVKEYLKNALESDLQLFI” here?
A: not failed

Q: Which protein production does the source give for “MSLSSEVVLMKPYEKLVERFNEMAAEFLSYFPTVKSVGNLESELDKRRFVILFRAMLRLRNEVKGYNEFDAEDLTIEEQRFADYQSKYLDMSNEFAITSEKEDAESILQDIDFELELVHRDIINVMYILALLQDLKPESSSYPKDRKAVLDTMDSNPELRSKIALIDNFIKLHIDGRQSNDLPADMESDLDKYIATQKAIAIEQVATEEGIDSTLLHEYISEYEYLGKPKNEGHHHHHH” here?
A: not failed

Q: With “MSSECDGGSKAVMNGLAPGSNGQDKDMDPTKICTGKGAVTLRASSSYRETPSSSPASPQETRQHESKPGLEPEPSSADEWRLSSSADANGNAQPSSLAAKGYRSVHPNLPSDKSQDSSPLLNEVSSSLIGTDSQAFPSVSKPSSAYPSTTIVNPTIVLLQHNREQQKRLSSLSDPVSERRVGEQDSAPTQEKPTSPGKAIEKRAKDDSRRVVKSTQDLSDVSMDEVGIPLRNTERSKDWYKTMFKQIHKLNRDDDSDLYSPRYSFSEDTKSPLSVPRSKSEMSYIDGEKVVKRSATLPLPARSSSLKSSSERNDWEPPDKKVDTRKYRAEPKSIYEYQPGKSSVLTNEKMSRDISPEEIDLKNEPWYKFFSELEFGKPTNLDKDLSLCQTELEADLEKMETLNKAPSANVPQSSAISPTPEISSETPGYIYSSNFHAVKRESDGAPGDLTSLENERQIYKSVLEGGDIPLQGLSGLKRPSSSASTKVHSRTFNTSNALGPVCKHKKPLSAAKACISEILPSKFKPRLSAPSALLQEQKSILLPSEKAQSCENLCVSGSLNDSKRGLPLQVGGSIENLLMRSRRDYDSKSSSTMSLQEYSTSGRRPCPLSRKAGMQFTMLYRDMHQINRSGLFLGSISSSSSVRDLASHFEKSSLALSRGELGPSQEGSEHIPKHTVSSRITAFEQLIQRSRSMPSLDLSGRLSKSPTPVLSRGSLTSARSAESLLESTKLHPKEMDGMNSSGVYASPTCSNMAHHALSFRGLVPSEPLSTCSDDVDRCSNISTDSREGSGGSVHGDFPKHRLNKCKGTCPASYTRFTTIRKHEQQQTSRQPEWRLDARGDKSTLLRNIYLMSPLPFRLKKPLHHHPRQPSPGDSSGLLVGQKPDLPSQPHQDQPPSGGKPVVPTRLSSRHTMARLSRSSEPSQERPTALEDYPRAINNGNSVPYSDHSLDRNNNPQSELAPSRGDSESPRHFIPADYLESTEEFIRRRHDDKEMRPARAKFDFKAQTLKELPLQKGDIVYIYKQIDQNWYEGEHHGRVGIFPRTYIELLPPAEKAQPKKLTPVQVLEYGEAIAKFNFNGDTQVEMSFRKGERITLLRQVDENWYEGRIPGTSRQGIFPITYVDVIKRPLVKNPVDYMDLPFSSSPSRSATASPQQPQAQQRRVTPDRSQTSQDLFSYQALYSYIPQNDDELELRDGDIVDVMEKCDDGWFVGTSRRTKQFGTFPGNYVKPLYL” as the sequence, how does the protein production read?
A: not failed

Q: Which protein production does the source give for “MGHHHHHHSHGYLLKPEFMRRPDKSFDPFTEVIVDGIVANALRVKVISGQFLSDRKVGIYVEVDMFGLPVDTRRKYRTRTSQGNSFNPVWDEEPFDFPKVVLPTLASLRIAAFEEGGKFVGHRILPVSAIRSGYHYVCLRNEANQPLCLPALLIYTEASDYIPDDHQDYAEALINPIKHVSLMDQRARQLAALIG” here?
A: failed

Q: Which protein production does the source give for “MPETYIITPNLNGVSFLEVYFRSLLRQTYEDFRVVFIDNGSSDGSVDFIKSNFSEYLGDRIILIENHENLGFAASNNQGIRIALDDPQCRYVVCLNNDTEVLPDFIENLILAAGDDERVGSVQARMIWGQNRKLIDSAGLEYSLNGLGFNRGAYEPVENFNERARILGCCAGACLYRREALEDVEVDAEYFDEDFFAYYEDFDLALRLRSAGWDSLYAPDATVYHYKGGTNPFISDFTVYHNWRNYTWTFIKNMPADLLLMCLPLFVLTEIIQVLLNIKRGKLIILRAKYDAYRGLGRVIRKRRALKRVPESEIKEYLTMRWSVKVPSPQED” here?
A: failed

Q: For “GHMPTKQQLLYEGKAKKIYATDEPDVLWVEYKDSATAFNGEKKATIAGKGRLNNEISSLLFLKLREAGIANHFIEKLSPTEQLVRRVTIIPLEVVVRNVVAGSLAKRIGLEEGTPLEAPLVEFYYKNDDLGDPLLLEDHIFILKLASREEVAALKQAALAVNDVLRLHFAERNVRLIDFKLEFGRTADGAILLADEISPDTCRLWDAKTNEKLDKDVFRRDLGSLTDAYEVILQRLGGESACTK”, which protein production is on record?
A: not failed

Q: With “MSKQLLALNIDGALLRSNGKIHQATKDAIEYVKKKGIYVTLVTNRHFRSAQKIAKSLKLDAKLITHSGAYIAEKIDAPFFEKRISDDHTFNIVQVLESYQCNIRLLHEKYSIGNKKKVNSNLLGKALIHPSDPIFYPVQFVESLSDLLMDEPVSAPVIEVYTEHDIQHDITETITKAFPAVDVIRVNDEKLNIVPKGVSKEAGLALVASELGLSMDDVVAIGHQYDDLPMIELAGLGVAMGNAVPEIKRKADWVTRSNDEQGVAYMMKEYFRMQQRKGFLDKFHMKR” as the sequence, how does the protein production read?
A: not failed

Q: For “MDLRIKNKAKKIKAVFFDIDDTLRIKDTGYMPDSIKKVFESLQEKDILTGIASGRAPYGVVPEIRQLNPDFFVTINGSYVINHKGEELSNDPIPKDIIEKYVVWCQEIGIEYGFAGKDKAVVSKRTELVDKALVPVYGFCPVEPDFYKNHEVYHMWTFEDVGDSLQLSDELKEDVRLVRWHENSSDVIKNGISKASGLAHVLKKVHLKPENVLFFGDGPNDMEIFDYVGLKVAMGNGHGDLKEKADFITKNVEEDGILYALEELGLVEKELQFPQLDVTNDDAPMALIKTNYGDLKVKLFPKQAPKTVANFVALAKDGYYDGVIFHRVIKDFMIQGGDPTGTGMGGESIYGERFEDEFSEELYNLRGALSMANAGPNTNGSQFFIVQNQNLPYSAKELERGGWPKEIAAAYAENGGTPHLDRRHSVFGQLVDQASYEALDNIANVDTGVADKPIDDIVIESIEVIDDENRG”, which protein production is on record?
A: failed

Q: Which protein production does the source give for “DISSTEIWDAIRRNSFLLYYQPKVDAKTNELIGFEGLIRLKTATAILAPADFFEDIALLNATREMQDFVAETAIEQINQLGGRFSISINIPAHYVVSSNYMTFLYDYVKEHLKYPECLEIEIIERGEITELAVADKNLRKIKKLGVTVSMDDFGKGYSSLAYLRSLPIDIVKTDMSFIALLKTDRKQQIIIQAIVNLCHDLGGKVVTEGVEDIEQVKTLREMKVDYFQGYYFSRP” here?
A: not failed

Q: With “DRNSYSKTDYDATFMRMKEDHMKNGQLKPGYNLQIATNSQFVLSYNVYQNPTDTRTMIPFLNSIQETYGHLPEYIVADAGYGSESNYKAIIDDFNRTPLITYGMFIKDKTKKYKSDIFNTQNWNYDEIN” as the sequence, how does the protein production read?
A: failed

Q: For “MDDPFASLEPLAVAPSGPEGVRAQFDQMEDIPPPRPRQPPPAQEDPVEIEVTEDGVARAFTEKYGGTLRFDHDAGRWYHWQEDHWQADTTSRAFEYCRRLARLASEGAKHSLLSTARKASFAGGVERLARADPAHAVTQEAWDRDPWLVACPGETVDLRTGRSAVPRPEDGITRRVAVAPAAQETCPTWWQFLEDATGADSSVMRFLQQWAGYSLTGITREHTLVFLYGDGGNGKSVFINTLTGLLGDYAATAGMETFTASKSDRHPTDLAMLAGARLVAASETEEGRAWAESRIKQMTGGDRITARFMRRDFFTYTPQFKLTLVGNHRPALANVKPVEPWALVVPAELETVAQQVLAEIAAAAVSDVNPFSGTLELIVEPGLTSATGWYLIGNPALHDGLAHAFLDGQSAPRIETRAGWNTLGMEFRLTWAVDAKFIGTASWFRNPGASGCPRCRPRNAQRQGVALLCLARRSEVLDRLEHHHHHH”, which protein production is on record?
A: failed
